The values that follow come from article PMC4805542.

This data set concerns ZF6-KRAB (synthetic construct). The data set can be described thus: EMSA. Particulars: 2.5 uM protein, DNA titrated 130-200 nM; apparent Kd, Scatchard; 6.25 mM MgCl2; 25 mM Hepes pH 7.9, 50 mM KCl, 6.25 mM MgCl2, 1% Nonidet P-40, 5% glycerol; 15 min on ice; 5% PAGE in 0.5x TBE at 4 C.

Regarding hRHO 65 bp duplex oligonucleotide, the Kd stood at 108 nM.
